B1: hIL23R_VHH1 (VHH)
VHH: QVQLQESGGGSVQAGGSLRLSCAASGYTYCSYDMSWYRQAPGKKREFVSAFNSDGTTSYADSVKGRFTISQDKAKNTVYLQMNSLKPEDTAMYYCKTDPHVQSSGGYCPPYWGQGTQVTVSS
notes: Phagemid clone with his-tag, periplasmic extract
B2: hIL23R_VHH5 (VHH)
VHH: QVQLQESGGGSVQAGGSLRLSCAASGYTYCSYDMSWYRQAPGKKREFVSAIASDGSTSYADSLKGRFTISQDNAKNTVYLQMNSLKPEDTAMYYCKTDPHVQSSGGYCPPYWGQGTQVTVSS
notes: as for B1
B3: hIL23R_VHH10 (VHH)
VHH: QVQLQESGGGSVQAGGSLKLSCAASGYTYCNYDIAWYRQAPGKERKFVSAIASDGSTSYADSVKGRFTISQDNAKNTVYLQMNSLKPEDTAMYYCKTDPIATMTRRCDPYWGQGTQVTVSS
notes: as for B1
B4: hIL23R_VHH7 (VHH)
VHH: QVQLQESGGGSVQAGGSLRLSCAASGYTYCNYDIAWYRQAPGKERKFVSAIASDGITSYADSVKGRFTISQDNAKNTVYLQMNSLKPEDTAMYYCKTDPISTITRICDPYWGQGTQVTVSS
notes: as for B1
B5: hIL23R_VHH6 (VHH)
VHH: QVQLQESGGGLVQPGGSLRLSCAASGYTYCSYDMGWYRQAPGKKRKFVSSINSDGTTSYADSVKGRFTISQDNAKNTVYLQMNSLKPEDTAMYYCKTDPQTRPGKPCADYWGQGTQVTVSS
notes: as for B1
B6: hIL23R_VHH9 (VHH)
VHH: QVQLQESGGGLVQAGGSLRLSCAASGYTYCSYDMSWYRQAPGKERKFVSSINSDGTTSYADSVKGRFTISQDNAKNTVYLQMNSLKPEDTAMYYCKTDPQTRPGKPCADYWGQGTQVTVSS
notes: as for B1
B7: hIL23R_VHH2 (VHH)
VHH: QVQLQESGGGSVQAGGSLRLSCAASGYTYCSYDMSWYRQAPGKKREFVSSFNSDGSTSYADSVKGRFTISQDNAKNTVYLQMNSLKPEDTAMYYCKTDPHADWGAPCGGDYWGQGTQVTVSS
notes: as for B1
B8: hIL23R_VHH4 (VHH)
VHH: QVQLQESGGGSVQAGGSLRLSCAASGSTYCTYDMTWYRQAPGKRREFVSAINSDGSTSYADSVKGRFTISQDNAKNTVYLQMNSLKPEDTAMYYCKTDPNSGWGAPCGGDYWGQGTQVTVSS
notes: as for B1
B9: hIL23R_VHH3 (VHH)
VHH: QVQLQESGGGSVQAGESLRLSCAASGYTYCTYDMTWYRQAPGKKREFVSGIHSDGTTSYADSVKGRFTISQDNAENTVYLQMNSLKPEDTAMYYCKTDPIATITRRCDSYWGQGTQVTVSS
notes: as for B1
B10: mIL12Rb1_VHH19 (VHH)
VHH: QVQLQESGGGSVQAGGFLRLSCVASGYGYCGYDMSWYRQVPGKEREFVALITSDRSVSYEDSVKGRFSISRDNAKNTAYLEMNRLTPDDTAIYYCKTSTAARENNWCRSRYRIASWGQGTQVTVSS
notes: as for B1
B11: mIL12Rb1_VHH20 (VHH)
VHH: QVQLQESGGGSVQAGGSLRLSCVASGYGYCGYDMSWYRQTPGKEREFVALITSDRIASYEDSVKGRFIISRDNAKNTGYLDMTRVTPDDTAIYYCKTSAAARENSWCRSRYRVASWGQGTQVTVSS
notes: as for B1
B12: mIL12Rb1_VHH15 (VHH)
VHH: QVQLQESGGGSVQAGGFLRLSCVASGYGYCGYDMSWYRQVPGKEREFVALITSDRSVSYEDSVKGRFSISRDNAKNTAYLEMNRLTPDDTAVYYCKTSTAARENNWCRSRYRIAYWGQGTQVTVSS
notes: as for B1
B13: mIL12Rb1_VHH8 (VHH)
VHH: QVQLQESGGGSVQAGGFLRLSCVASGYGYCGYDMSWYRQAPGKEREFVALITSERVISYEDSVKGRFSISRDNAENTGYLEMNRLTPDDTAIYYCKTSAAARESSWCRSRYRVASWGQGTQVTVSS
notes: as for B1
B14: mIL12Rb1_VHH5 (VHH)
VHH: QVQLQESGGGSVQAGETLRLSCTVSGFTIDDSEMGWYRQAPGHECELVASGSSDDDTYYVDSVKGRFTISLDNAKNMVYLQMNSLKPEDTAVYYCATGPTYPPKDGDCAHWGQGTQVTVSS
notes: as for B1
B15: mIL12Rb1_VHH9 (VHH)
VHH: QVQLQESGGGSVQAGGSLRLSCVASGYGYCGYDMSWYRQAPGKEREFVALITSDRSISYEDSVKARFIISRDNAANTGYLDMTRLTPDDTAIYYCKTSAAARESSWCRSRYRVASWGQGTQVTVSS
notes: as for B1
B16: mIL12Rb1_VHH23 (VHH)
VHH: QVQLQESGGGSVQAGGSLRLSCTASGYTYSSAFMAWFRQAPGKEREGVAAIYTRDGGTVYADSVKGRFTISQDNAKNTLYLQMNSLKPEDTAMYYCAAKMPQPGRASLLDSQTYDYWGQGTQVTVSS
notes: as for B1
B17: mIL12Rb1_VHH3 (VHH)
VHH: QVQLQESGGGSVQAGGSLRLSCVASGYSYCGYDMMWYRQAPGKEREFVALITSDYSIRYEDSVEGRFSISRDNAKNTGYLLMSNLTPADTAIYYCKTSTAARESSWCRSRYRVASWGQGTQVTVSS
notes: as for B1
B18: mIL12Rb1_VHH11 (VHH)
VHH: QVQLQESGGGSVQAGGSLRLSCVASGYSYCGYDMMWYRQAPGKEREFVALITSDYSIRYEDSVEGRFSISRDNAKNTGYLLMSNLTPADTAIYYCKTSTAARESSWCRSRYRVASWGQGTQVTVSS
notes: as for B1
B19: mIL12Rb1_VHH13 (VHH)
VHH: QVQLQESGGGSVQAGGSLRLSCVASGYSYCGYDMMWYRQAPGKEREFVALITSDYSIRYEDSVEGRFSISRDNAKNTGYLLMSNLTPADTAIYYCKTSTAARESGWCRSRYRVASWGQGTQVTVSS
notes: as for B1
B20: mIL12Rb1_VHH2 (VHH)
VHH: QVQLQESGGGSVQAGGSLRLSCAVSGYDYCGYDVRWYRQAPGKEREFVSGIDSDGSTSYADSVKGRFTISQDNAENTSYLHMFSLKPEDTAMYYCKTESPAGESAWCRNFRGMDYWGKGTQVTVSS
notes: as for B1
B21: mIL12Rb1_VHH10 (VHH)
VHH: QVQLQESGGGSVQAGGSLRLSCAVSGYDYCGYDVRWYRQAPGKEREFVSGIDSDGSTSYADSVKGRFTISQDNAENTSYLHMFSLKPEDTAMYYCKTESPAGESAWCRNFRGMDYWGKGTQVTVSS
notes: as for B1
B22: mIL12Rb1_VHH7 (VHH)
VHH: QVQLQESGGGSVQAGGSLRLSCAVSGYDYCGYDVRWYRRAPGKEREFVSGIDSDGSTSYADSVKGRFTISQDNAENTSYLHMFSLKPEDTAMYYCKTESPAGESAWCRNFRGMDYWGKGTQVTVSS
notes: as for B1
B23: mIL12Rb1_VHH21 (VHH)
VHH: QVQLQESGGGSVQAGGSLRLSCAVSGYDYCGYDVRWYRRAPGKEREFVSGIDSDGSTSYADSVKGRFTISQDNAENTSYLHMFSLKPEDTAMYYCKTESPAGESAWCRNFRGMDYWGKGTQVTVSS
notes: as for B1
B24: mIL12Rb1_VHH16 (VHH)
VHH: QVQLQESGGGSVQAGGSLRLSCAVSGYDYCGYDVRWYRQAPGKEREFVSGINSDGSTSYADSVKGRFTISQDNAENTSYLHMFSLKPEDTAMYYCKTEGPAGESAWCRNFRGMDYWGKGTQVTVSS
notes: as for B1
B25: mIL12Rb1_VHH4 (VHH)
VHH: QVQLQESGGGSVQAGGSLRLSCAASRYTYTNNFMAWFRQAPGKEREGVAAIYTGDGYAYYFDSVKGRFTISQDNDKNMLYLQMNSLKPEDTAMYYCAAMERRSGRRRMTENAEYKYWGQGTQVTVSS
notes: as for B1
B26: mIL12Rb1_VHH12 (VHH)
VHH: QVQLQESGGGSVQAGGSLRLSCAASRYTYTNNFMAWFRQAPGKEREGVAAIYTGDGYAYYFYSVKGRFTISQDNDENMLYLQMNSLKPEDTAMYYCAAMERRIGTRRMTENAEYKYWGQGTQVTVSS
notes: as for B1

Here are results for 26 molecules from patent US20230279126A1 (published 2023).

For one assay, the target named is T1, extracellular domain of human IL23R (hIL23R ECD) (human, UniProt Q5VWK5 24-355).
T1 construct: The immunogen was an ECD-human IgG1 hinge-Fc fusion
T1 sequence: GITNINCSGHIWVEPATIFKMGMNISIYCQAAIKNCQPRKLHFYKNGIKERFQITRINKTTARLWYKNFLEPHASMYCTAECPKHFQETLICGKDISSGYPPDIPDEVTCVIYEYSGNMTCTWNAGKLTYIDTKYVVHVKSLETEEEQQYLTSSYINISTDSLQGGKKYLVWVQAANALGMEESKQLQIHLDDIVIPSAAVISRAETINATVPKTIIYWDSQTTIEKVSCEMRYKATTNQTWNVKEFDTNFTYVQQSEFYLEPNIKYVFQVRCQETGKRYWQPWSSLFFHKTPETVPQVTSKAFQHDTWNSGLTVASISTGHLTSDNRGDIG
The assay is described as follows: periplasmic extract ELISA (PE-ELISA) of phage clones, colorimetric. The essentials:
(§1)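 Camels were immunized in turn with fusion proteins joining the human or mouse receptor extracellular domain to a human IgG1 hinge and Fc, and their VHH domains were recovered. RNA from the blood was transcribed, and a VHH fragment of approximately 400 bp was cloned into a phagemid in E. coli, in frame with a his-tag. The resulting phage library was biopanned over multiple rounds against either the human or the mouse extracellular domain. Selective binding of single clones was read colorimetrically by periplasmic extract ELISA in 96-well plates.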
Background: An ELISA detects its analyte on a solid surface through an enzyme-linked reagent.
As for B1, the binding result is reported as “binds”. Same read-out and setting: then B2, with “binds”; and B3, with “binds”; and B4, with “binds”. The same measure, in the same setting: the same measure for B5: “binds”; for B6: “binds”; for B7: “binds”. Still for that read-out and setting: then B8, with “binds”; and B9, with “binds”.

Another assay addresses T2, extracellular domain of mouse IL12RB1 (mIL12Rb1 ECD) (mouse, UniProt Q60837 20-565).
T2 construct: The immunogen was a fusion of the ECD with the human IgG1 hinge and Fc; also called mIL12Rb1 ECD antigen
T2 sequence: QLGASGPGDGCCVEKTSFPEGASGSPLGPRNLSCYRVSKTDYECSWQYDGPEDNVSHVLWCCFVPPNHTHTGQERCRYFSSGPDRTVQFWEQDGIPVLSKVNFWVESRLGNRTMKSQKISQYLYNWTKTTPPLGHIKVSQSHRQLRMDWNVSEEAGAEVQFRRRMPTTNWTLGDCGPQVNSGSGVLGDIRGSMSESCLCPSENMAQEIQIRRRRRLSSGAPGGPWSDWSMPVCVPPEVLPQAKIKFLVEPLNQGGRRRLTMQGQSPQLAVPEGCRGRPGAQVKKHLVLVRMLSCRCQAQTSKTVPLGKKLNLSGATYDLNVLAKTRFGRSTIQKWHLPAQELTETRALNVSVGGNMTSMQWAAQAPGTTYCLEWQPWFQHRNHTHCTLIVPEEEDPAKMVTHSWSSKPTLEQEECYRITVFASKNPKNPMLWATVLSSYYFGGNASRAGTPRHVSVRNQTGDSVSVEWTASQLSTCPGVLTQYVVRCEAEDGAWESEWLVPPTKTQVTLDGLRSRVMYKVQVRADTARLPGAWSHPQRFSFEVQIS
The description is as above. The procedure, abridged: as §1
As for B10, the binding result is recorded as “binds”. Same read-out and setting: then B11, with “binds”; and B12, with “binds”. With B13, the binding result was “binds”. Consider B14, for which the binding result is on record as “binds”. B15: the binding result is on record as “binds”. Still for that read-out and setting: then B16, with “binds”; and B17, with “binds”; and B18, with “binds”. Consider B19, for which the binding result is reported as “binds”. Same read-out and setting: the same measure for B20: “binds”. Same read-out and setting: then B21, with “binds”; and B22, with “binds”. As for B23, the binding result is “binds”.

With B24, the binding result is recorded as “binds”. The same measure, in the same setting: the same measure for B25: “binds”. With B26, the binding result is listed as “binds”.
